# Residues, ends and D or L forms follow the SMILES beside them. *: point of attachment. DOTA = O=C(O)CN1CCN(CC(=O)O)CCN(CC(=O)*)CCN(CC(=O)O)CC1; Stearoyl = CCCCCCCCCCCCCCCCCC(=O)*; Palmitoyl = CCCCCCCCCCCCCCCC(=O)*
# How the values were obtained:
# CT26 cells = test: Cytotoxicity, MTS assay; type: cell-based, murine; conditions: 4000 cells/well, 24 h incubation with compound, then 48 h without, absorbance 490 nm
# Method: CT26 (murine colon carcinoma) was purchased from ATTC (Rockville) and cultured in DMEM medium supplemented with 10% fetal calf serum and pen-strep (Invitrogen Inc) at 37 °C and 5% CO2 in a humidified atmosphere. A commercial MTS assay was used to assess cytotoxicity. (Promega, CellTiter 96® AQueous One Solution Cell Proliferation Assay).
# Cells were plated onto 96 well plates at a density of 4000 cells/well the day before the start of experiment. The original culture medium was replaced by medium containing increasing amounts of the indicated agents. After 24 h incubation with D3R-C16 or D3R-C18, the medium was removed and the cells were further incubated for another 48 hours. To measure metabolically active cells, 100 µL of MTS solution was added to the wells and incubated until sufficient amount of color was developed and within the linear range. The absorbance was measured at 490 nm using a microplate reader (Sunrise, Tecan).
# [1] = Critical micelle concentration by surface tension measurement (Du Noüy); type: physicochemical; conditions: 0.49-250 µM
# Method: An Ez-pi+ surface tensiometer, with dyneprobe (diameter: 0.51 mm) and polypropylene sample cuvettes were purchased from Kibron to measure the surface tension.
# (§1) D3R-C16 or D3R-C18 was dispersed in ISO-HEPES-NaCl or ISO-HEPES-Sucrose for a final concentration of 250 μM as stock solutions. Sample series were prepared by diluting the stock solutions with ISO-HEPES-NaCl or ISO-HEPES-Sucrose into concentrations of 125, 62.5, 31.25, 15.63, 7.81, 3.91, 1.95, 0.98 and 0.49 μM. The surface tension of the sample was measured by the Du Noüy method with a platinum probe. For each sample, the measurements were repeated until three consecutive measurements varied with less than 1 mN/m between them. Based on the critical micelle concentration of D3R-C18, a micellar dispersion of D3R-C18 in ISO-HEPES-Sucrose (2.0 mM) was prepared. The zeta potential of the D3R-C18 micelles was measured on a Zetasizer (Malvern).
# [2] = Micelle size (DLS) and zeta potential; type: physicochemical; conditions: for PDI of micelles / average size of micelles (Z-average): 2.0 mM in ISO-HEPES, DLS; for average size of micelles (Z-average): broad distribution
# Method: Liposomes were prepared using a mini-extruder (Avanti Polar Lipids) or a LIPEX Thermobarrel Pressure Extruder (10 mL, Northern Lipids). The hydrodynamic size and zeta potential of liposomes were measured by dynamic light scattering (DLS) on a Zetasizer (Malvern). Intensity weighted lognormal mean sizes are reported, unless otherwise noted. Sizes were measured in ISO-HEPES-NaCl and zeta potentials were measured in ISO-HEPES-Sucrose. Lipid concentrations were measured by ICP-MS (Thermo Scientifc, iCAP Q) by quantifying the phosphorous content of liposome samples against an internal standard of gallium (10 ppb). Sephadex G-25 PD-10 columns (8.3 mL bed volume) were purchased from GE Healthcare.
# as §1
# [3] = mouse, in vivo
# Method: (§2) Mice were injected intratumorally with ^64Cu-compounds in concentrations of 40 MBq/mL. During the scan procedures, mice were anaesthetized using 3-4 % sevoflurane (Abbott Scandinavia AB, Sweden) mixed with 35% O2 and 65% medical grade air and placed on heating pads. Two mice were positioned side-by-side, separated by a 6 mm polystyrene block for PET/CT imaging using Inveon® small animal PET/CT system with CT based PET image attenuation (Siemens Medical Systems, Malvern, PA, USA). The protocol included a 12-minute PET scan, followed by a CT scan. Mice were fixed on a bed inside the scanner with the syringe placed and the needle fixed centrally in the tumor and ready for injection. Upon initiation of the first scan, intratumoral injections were done manually over 30 seconds, to investigate the initial dynamics of the tracer diffusion. Following this, two further scans were included; at six hours (5 minutes scan time) and 24 hours (12 minutes scan time) after injection. Reconstruction of the PET scans were performed using maximum a posteriori (MAP) reconstruction algorithm (voxel size: 0.815 x 0.815 x 0.796 mm; resolution (FWHM) 1.2 mm). The injection scan was reconstructed in 4 x 30 second and 10 x 60 second time frames to observe the dynamics of tracer diffusion. The two last time points were reconstructed in a single time frame.
# (§3) Image analysis was performed using commercially available Inveon software (Siemens Medical Systems, Malvern, PA, USA). Regions of interest (ROIs) were manually drawn based on the co-registered PET/CT images. The following ROIs were constructed; tumors (complete volume delineated), liver, spleen, kidney, bladder, and blood. Blood activity was estimated from a constructed ROI covering the left ventricular lumen of the heart. ROIs in the left ventricle and abdominal aorta were subsequently segmented to only include the voxels displaying above 80% of maximum activity with the original ROI. From the obtained uptake values all data was calculated into %ID/g for each organ and as %ID in tumors by adjusting for CT based tumor volume. Furthermore, voxel values from tumor ROIs were used to generate histograms for substance diffusion over time in the tumor region.
# (§4) Note that the first point in each plot represents the percentage of voxels with radioactivity concentrations lower than 1.6 %ID/g. These voxels are considered empty, meaning that the corresponding tumor region is non-radioactive.
# in vivo [4] = conditions: female, Balb/C, mouse, total radioactivity
# Method: CT26 wildtype cells (murine colon carcinoma, ATCC, Virginia, US) were cultured RPMI (Roswell Park Memorial Institute) medium supplemented with 10 % heat-inactivated Fetal Calf Serum (FCS) and 1 % Penicillin-Streptomycin (Invitrogen, Carlsbad, CA., US) retained in 5 % CO2 incubator at 37 °C. Immunocompetent female Balb/C mice (Charles River, Wilmington, MA., USA) were inoculated with tumor cells after one week of adaptation. All 20 mice included were inoculated subcutaneously with 3 x 10^5 CT26 wildtype cells in 100 µL medium on the right flank and hereafter monitored for weight and tumor size continuously for study purposes and to monitor the health of the mice. Tumor sizes were calculated from the formula of 0.52 x lenght^2 x width, as measured by external caliper. Animals were included in the study when tumors were approximately 400 mm^3.
# as §2, §3
# in vivo [5] = conditions: female, Balb/C, mouse, total radioactivity; remark: listed apart in the source
# Method: as §2, §3, §4
# [6] = Partitioning of radiolabeled surfactant into liposomes (SEC, PD-10); type: physicochemical; conditions: 37 °C, 60 min, for D3R-C18 at lipid 0.36 and 0.72 mM
# Method: Three different liposomes types were prepared: (1) POPC only, (2) POPC-POPG (9:1), (3) commercially available stealth lipid mixture (see above). POPC or the POPC-POPG mixture was freeze- dried from tert-butanol:water (9:1). The resulting lyophilizate or the stealth lipid mixture (187.5 mg) was then hydrated with ISO-HEPES-NaCl (5.0 mL) at 65 ℃ for 60 minutes by magnetic stirring. This was followed by sizing through a mini-extruder with a cut-off size of 100 nm. Size, PDI and zeta potential of all three preparations were measured (Table 1). The liposomes were diluted to lipid concentrations of 0.4, 1.0 and 4.0 mM for partitioning studies.
# A dispersion of ^64Cu-D3R-C16 (200 μM) in ISO-HEPES-NaCl (100 µL) was added to POPC liposomes (900 µL, 0.4 mM). The resulting mixture was magnetically stirred at 37 ℃. Mixtures were separated by size-exclusion chromatography (SEC) at 10, 30, 60, 120 and 180 minutes after addition. An aliquot (100 µL) was applied to a PD-10 cartridge and eluted with ISO-HEPES-NaCl. […] The radioactivities of the two collected fractions and the column were measured by dose calibrator. […] The partitioning of the radiolabeled constructs into liposomes was calculated as the ratio of the radioactivity in the liposomal fraction to the total radioactivity of the liposomal fraction plus the column. […] The mixtures were analyzed by SEC by applying 200 µL to a PD-10 cartridge (see above). […]
# [7] = in ISO-HEPES-NaCl (10 mM HEPES, 150 mM NaCl, pH 7.4)
# [8] = in ISO-HEPES-Sucrose (10 mM HEPES, 300 mM sucrose, pH 7.4)
structure (smiles),measurement,setting,value
CCCCCCCCCCCCCCCCCC(=O)N[C@@H](CCCNC(=N)N)C(=O)N[C@@H](CCCNC(=N)N)C(=O)N[C@@H](CCCNC(=N)N)C(=O)N[C@@H](CCCCNC(=O)CN1CCN(CC(=O)O)CCN(CC(=O)O)CCN(CC(=O)O)CC1)C(N)=O [D3R-C18] (Stearoyl-RRRK(DOTA)-NH2),median lethal concentration (LC50),CT26 cells,above 100 µM
same,CMC,[1]; [7],about 10 µM
same,CMC,[1]; [8],above 100 µM
same,PDI of micelles,[2],0.3
same,average size of micelles (Z-average),[2],10 nm
same,zeta potential of micelles,"[2]; 2.0 mM micellar dispersion in ISO-HEPES-Sucrose, Zetasizer",20.7 ± 0.5 mV
"CCCCCCCCCCCCCCCCCC(=O)N[C@@H](CCCNC(=N)N)C(=O)N[C@@H](CCCNC(=N)N)C(=O)N[C@@H](CCCNC(=N)N)C(=O)N[C@@H](CCCCNC(=O)CN1CCN(CC(=O)O)CCN(CC(=O)O)CCN(CC(=O)O)CC1)C(N)=O [64Cu-D3R-C18, metal not drawn] (Stearoyl-RRRK(DOTA)-NH2)",range of voxel radioactivities in tumor,[3],0-500 %ID/g
same,tissue uptake at 15 s,in vivo [4],80 ± 66 %ID/g
same,tissue uptake at 45 s,in vivo [4],171 ± 96 %ID/g
same,tissue uptake at 75 s,in vivo [4],230 ± 58 %ID/g
same,tissue uptake at 105 s,in vivo [4],241 ± 63 %ID/g
same,tissue uptake at 2.5 min,in vivo [4],241 ± 66 %ID/g
same,tissue uptake at 3.5 min,in vivo [4],240 ± 68 %ID/g
same,tissue uptake at 0.075 h,in vivo [4],241 ± 69 %ID/g
same,tissue uptake at 5.5 min,in vivo [4],240 ± 70 %ID/g
same,tissue uptake at 6.5 min,in vivo [4],240 ± 70 %ID/g
same,tissue uptake at 0.125 h,in vivo [4],240 ± 70 %ID/g
same,tissue uptake at 8.5 min,in vivo [4],239 ± 69 %ID/g
same,tissue uptake at 9.5 min,in vivo [4],238 ± 70 %ID/g
same,tissue uptake at 0.175 h,in vivo [4],238 ± 70 %ID/g
same,tissue uptake at 11.5 min,in vivo [4],236 ± 70 %ID/g
same,tissue uptake at 6 h,in vivo [4],49 ± 17 %ID/g
same,tissue uptake at 24 h,in vivo [4],23 ± 7 %ID/g
same,tissue uptake dose at 0.2 h,in vivo [4],85 ± 11 %ID
same,tissue uptake at 5 min,in vivo [5],< 10 %ID/g
CCCCCCCCCCCCCCCC(=O)N[C@@H](CCCNC(=N)N)C(=O)N[C@@H](CCCNC(=N)N)C(=O)N[C@@H](CCCNC(=N)N)C(=O)N[C@@H](CCCCNC(=O)CN1CCN(CC(=O)O)CCN(CC(=O)O)CCN(CC(=O)O)CC1)C(N)=O [D3R-C16] (Palmitoyl-RRRK(DOTA)-NH2),median lethal concentration (LC50),CT26 cells,above 100 µM
same,CMC,[1]; [7],about 40 µM
same,CMC,[1]; [8],above 100 µM
same,PDI of micelles,[2],0.3
same,average size of micelles (Z-average),[2],10 nm
same,"stealth liposome partitioning, 177Lu label compared with 64Cu label",[6],no significant difference

# Reference: PMC7256013, “Preclinical evaluation of cationic DOTA-triarginine-lipid conjugates for theranostic liquid brachytherapy” (Nanotheranostics, 2020)
